Assay results reported in patent US9120851B2, “Human antibodies to human angiopoietin-like protein 4” (Regeneron Pharmaceuticals, Inc., priority 2009, dated 2015).

T1: mANGPTL4-His (Mus musculus, UniProt Q9Z1P8)
T1 sequence (Q9Z1P8 26-410): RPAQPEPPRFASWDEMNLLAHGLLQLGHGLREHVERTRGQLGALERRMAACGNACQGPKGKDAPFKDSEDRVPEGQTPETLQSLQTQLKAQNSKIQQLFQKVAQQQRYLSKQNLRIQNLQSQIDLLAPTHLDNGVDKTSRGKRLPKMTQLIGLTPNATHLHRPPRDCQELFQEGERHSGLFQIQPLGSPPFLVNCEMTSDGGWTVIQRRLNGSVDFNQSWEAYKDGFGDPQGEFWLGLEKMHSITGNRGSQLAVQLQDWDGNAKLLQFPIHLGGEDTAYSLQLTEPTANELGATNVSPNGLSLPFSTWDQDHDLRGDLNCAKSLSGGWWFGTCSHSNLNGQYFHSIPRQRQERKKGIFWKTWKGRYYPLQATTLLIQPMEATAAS

T2: hANGPTL4 peptide (R34-L66 of SEQ ID NO:476) (Homo sapiens, UniProt Q9BY76)
T2 sequence (Q9BY76 34-66 limits assumed): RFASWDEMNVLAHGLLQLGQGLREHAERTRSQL


Key:
[1] = tested on: C57BL/6 mice given hANGPTL4-mFc; assay type: in vivo; settings: antibody 5 mg/kg s.c.; 24 h later hANGPTL4-mFc 25 μg/mouse i.v.; bled 30 min after; mean±SEM
Procedure: In another set of experiments, selected anti-hANGPTL4 antibodies were tested for their ability to inhibit hANGPTL4-induced increase of triglyceride levels. Measurements of total cholesterol, LDL, NEFA-C and HDL were also made. Briefly, C57BL/6 mice were put into groups of five mice each for each antibody tested. Antibodies were administered at 5 mg/kg dose by subcutaneous injection. Control group I, i.e., mice that received neither anti-hANGPTL4 antibodies nor hANGPTL4, were administered with PBS. Twenty-four hours post-injection of antibody, hANGPTL4-mFc (SEQ ID NO:480) was administered (i.v.) at a dose of 25 μg/mouse to each antibody group. Mice were bled at 30 min after hANGPTL4-mFc injection and lipid levels were determined by ADVIA® 1650 Chemistry System (Siemens). Averages were calculated for each of the measurements of triglycerides, total cholesterol (Total-C), LDL, NEFA-C and HDL for each antibody or control group. Levels of circulating anti-hANGPTL4 antibodies (Serum Ab) were also determined using a standard ELISA assay. Briefly, plates were coated with a goat anti-human Fc antibody (Sigma-Aldrich) to capture Serum Ab. Serum was then added to the plates and captured anti-hANGPTL4 antibodies were detected by chemiluminescence using a horseradish peroxidase (HRP) conjugated goat anti-human IgG antibody (Sigma-Aldrich). Control I: Mice that received PBS, but neither anti-hANGPTL4 antibodies nor hANGPTL4-mFc. Control II: Mice that received a human antibody specific for CD20 (i.e., the mAb having the sequence of 2F2 clone disclosed in US 2008/0260641) and hANGPTL4-mFc.

mANGPTL4-His = target: T1, mANGPTL4-His; experiment: BIACORE cross-reactivity, amine coupled mANGPTL4-His; assay type: binding; settings: for Specific RU, mANGPTL4-His: chip surface 5233 RU, mAb injected at 3.125-50 μg/mL
Procedure: (§1) Possible cross-reactivity of the anti-hANGPTL4 antibodies to related proteins, i.e., hANGPTL3, human angiopoietin-like protein 5 (hANGPTL5) and mouse ANGPTL4 (mANGPTL4), was tested for the selected antibodies, i.e., H1H268P and H1H284P, using the BIACORE™ system. Briefly, anti-hANGPTL4 antibodies as well as negative controls, i.e., two monoclonal antibodies (Control a and Control b) that are non-binders to any ANGPTL proteins, were injected at 3.125 μg/mL-50 μg/mL over amine coupled chip surfaces of hANGPTL3-His (R&D Systems, cat #3829-AN) at 5228 RU, hANGPTL4-His (R&D Systems, cat #4487-AN) at 6247 RU, hANGPTL5-His (Abnova Corp., cat #H00253935-P01) at 5265 RU, and mANGPTL4-His [R26-S410 of mANGPTL4 (SEQ ID NO: 478) fused with an AS linker to a C-terminal 6-histidine tag] at 5233 RU, respectively. A polyclonal antibody specific for hANGPTL3 (R&D System, cat #BAF3485) was also tested.

[2] = target: T2, hANGPTL4 peptide (R34-L66 of SEQ ID NO:476); experiment: BIACORE, hANGPTL4 peptides injected over captured antibody; assay type: binding; settings: for ka: 62.5 nM-500 nM
Procedure: Further, the binding affinities of H1H268P and H1H284P for various ANGPTL3 and ANGPTL4 peptides were also determined by BIACORE™ system. Briefly, H1H268P (1348±11 RU) and H1H284P (868±13 RU) were captured over anti-human Fc surface and various concentrations (62.5 nM-500 nM) of the hANGPTL3 and hANGPTL4 peptides were injected. The peptides tested were hANGPTL4 (R34-L66 of SEQ ID NO:476), N-terminally biotinylated hANGPTL4 (R34-L66 of SEQ ID NO:476), hANGPTL3 (R36-I68 of SEQ ID NO:485), and N-terminally biotinylated hANGPTL3 (R36-I68 of SEQ ID NO:485). Kinetic analysis was performed to measure ka and kd, and KD values and half-life of antigen/antibody complex dissociation were calculated. NB: No binding under the experimental conditions described.

hANGPTL5-His = target: T3, hANGPTL5-His (Homo sapiens, UniProt Q86XS5); experiment: BIACORE cross-reactivity, amine coupled hANGPTL5-His; assay type: binding; settings: for Specific RU, hANGPTL5-His: chip surface 5265 RU, mAb injected at 3.125-50 μg/mL
T3 construct: His; purchased Abnova Corp. H00253935-P01
T3 sequence (Q86XS5 26-388): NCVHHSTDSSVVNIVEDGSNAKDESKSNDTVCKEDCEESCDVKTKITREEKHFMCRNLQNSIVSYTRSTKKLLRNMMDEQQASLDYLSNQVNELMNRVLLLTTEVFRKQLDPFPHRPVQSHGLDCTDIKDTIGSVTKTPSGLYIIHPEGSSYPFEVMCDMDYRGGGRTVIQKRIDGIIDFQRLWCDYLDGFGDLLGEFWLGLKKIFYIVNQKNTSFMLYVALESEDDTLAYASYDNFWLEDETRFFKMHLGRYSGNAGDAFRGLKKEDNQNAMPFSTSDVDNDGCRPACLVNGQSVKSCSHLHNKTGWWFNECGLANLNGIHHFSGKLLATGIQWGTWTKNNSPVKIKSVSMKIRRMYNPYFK
Procedure: as §1

hANGPTL4(26-148)-mFc = target: T4, hANGPTL4(26-148)-mFc (Homo sapiens, UniProt Q9BY76); experiment: BIACORE, full mAb or Fab over anti-mFc captured hANGPTL4(26-148)-mFc; assay type: binding
T4 construct: amino acid residues 26-148 of human ANGPTL4 fused in-line to mouse IgG2a (hANGPTL4-mFc)
T4 sequence (Q9BY76 with tags, fused parts or gaps): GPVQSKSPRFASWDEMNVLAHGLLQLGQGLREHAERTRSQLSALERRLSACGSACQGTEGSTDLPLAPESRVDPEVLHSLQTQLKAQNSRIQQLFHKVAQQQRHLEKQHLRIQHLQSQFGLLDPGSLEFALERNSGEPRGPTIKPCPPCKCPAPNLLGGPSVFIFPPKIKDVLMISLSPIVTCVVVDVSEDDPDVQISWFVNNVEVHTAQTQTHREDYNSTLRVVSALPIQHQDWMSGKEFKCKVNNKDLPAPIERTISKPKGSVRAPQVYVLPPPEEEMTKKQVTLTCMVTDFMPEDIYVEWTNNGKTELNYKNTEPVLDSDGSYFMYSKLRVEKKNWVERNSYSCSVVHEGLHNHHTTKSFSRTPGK

[3] = hANGPTL4 peptide (not biotinylated)
[4] = pH 5.75, 25° C., antigen captured 27 ± 0.6 RU
[5] = pH 7.2, 25° C., antigen captured 35 ± 1.9 RU

binding to mANGPTL4-His (other related ANGPTL protein), in words (mANGPTL4-His) | Specific RU, mANGPTL4-His (mANGPTL4-His) | kd ([2]; hANGPTL4-Nterm biotin peptide) | ka ([2]; hANGPTL4-Nterm biotin peptide) | kd [2, 3] | ka [2, 3] | binding to hANGPTL5-His (other related ANGPTL protein), in words (hANGPTL5-His) | Specific RU, hANGPTL5-His (hANGPTL5-His) | Response bound at 50 nM mAb or Fab (RU) (hANGPTL4(26-148)-mFc; [4]) | Response bound at 50 nM mAb or Fab (RU) (hANGPTL4(26-148)-mFc; [5]) | binding to the hANGPTL4 peptides, in words ([2]; both peptides, highest peptide concentration tested 500 nM) | Molecule | HDL [1] | LDL [1] | NEFA-C [1] | Triglycerides [1] | Total-C [1]
did not bind | −7 RU | 0.000294 s⁻¹ | 4530 M⁻¹ s⁻¹ | 0.000365 s⁻¹ | 6490 M⁻¹ s⁻¹ | did not bind | −16 RU | 77 | 40 |  | H1H268P: anti-hANGPTL4 antibody, hIgG1 isotype, HCVR/LCVR SEQ ID NOs 42/44 (antibody, V domains shown) VH: QVQLQESGAGLLKPSETLSLTCTVYGGSFSIHHWTWIRHPPGKGLEWIGEINHRGSTNYNPSLKSRVTISIDTSKNQFSLKLSAVTAADTAVYYCARGLRFLDWLSSYFDYWGQGTLVTVSS VL: DIQMTQSPSSLSASVGDRVTITCRASQGISDYLAWYQQKPGKVPNLLIYAASALQSGVPSRFSGSGSGTDFTLTISSLQPEDVATYYCQNYNTAPLTFGGGTKVEIK | 35.94 ± 1.64 mg/dL | 4.94 ± 0.51 mg/dL | 0.82 ± 0.04 mg/dL | 92.60 ± 11.44 mg/dL | 
did not bind | 18 RU |  |  |  |  | did not bind | −13 RU | 171 | 99 | did not bind | H1H284P: anti-hANGPTL4 antibody, hIgG1 isotype, HCVR/LCVR SEQ ID NOs 90/92 (antibody, V domains shown) VH: QVQLVESGGGVVQPGRSLRLSCAASGFTFSSYGMHWVRQAPGKGLEWMAVISFDGGNKNNADSVKGRFTISRDNSKNTLYLQMNSLRAEDTAVYYCAKEGDRSGHPYFYYYGLDVWGQGTTVTVS VL: DIQLTQSPSFLSASVGDRVTITCWASQGISSYLAWYQQKPGKAPKLLIYAASTLQSGVPSRFSGSGSETEFTLTISSLQPEDFATYYCQQLHSYPLTFGGGTKVEIK | 39.60 ± 3.46 mg/dL | 4.98 ± 0.87 mg/dL | 0.99 ± 0.11 mg/dL | 99.20 ± 9.52 mg/dL | 80.80 ± 6.40 mg/dL
